{
  "source": "patent US20180291083A1",
  "biological_target": "HLA-B*07:02 (human)",
  "test": "UV ligand exchange ELISA; exchange yield grade",
  "details": "remark: other sources report otherwise",
  "data": [
    {"binder": "YPGWHSTTI", "note": "[…]", "values": [
      {"measurement": "peptide exchange yield", "result": "20 to 50", "unit": "%"}
    ]}
  ]
}
